This note sets out measurements from patent US20180194833A1 (H LUNDBECK A S, published 2018).

One experiment has as its target Mouse alpha-synuclein (mouse, UniProt O55042 1-140). As to the kind of experiment: Fortebio Octetred.
The next experiment has as its target Human alpha-synuclein (human, UniProt P37840 1-140). Description: SPR (BIAcore 3000), antibody captured by goat anti-human IgG, human alpha-synuclein 3.125-100 nM as analyte. On the technique in general: Surface plasmon resonance follows binding to a sensor surface in real time, without labels.

Description for Human alpha-synuclein: Goat anti-human IgG was immobilized on the CM5 chip. […] The sensor surface was regenerated between each cycle.

B1: GM285 (antibody, human IgG1, kappa, V domains shown)
VH: EVQLLESGGGLVQPGGSLRLSCAASGFTFSRFTMTWVRQAPGKGLEWVSAISGSGGGTSYADSVKGRLTVSRDNSKNTLYLQMNSLRAEDTAVYYCAKNWAPFDYWGQGTLVTVSS
VL: not shown
notes: also called mab285
Turning to B1, the binding result in the experiment with Mouse alpha-synuclein is “binds”.

B2: Comparator antibody 9E4 (antibody, human IgG1, kappa, V domains shown)
VH: EVQLVESGGGLVQPGGSLRLSCAASGFTFSNYGMSWVRQAPGKGLEWVASISSGGGSTYYPDNVKGRFTISRDNAKNSLYLQMNSLRAEDTAVYYCARGGAGIDYWGQGTLVTVSS
VL: DIQMTQSPSSLSASVGDRVTITCKSIQTLLYSSNQKNYLAWFQQKPGKAPKLLIYWASIRKSGVPSRFSGSGSGTDFTLTISSLQPEDLATYYCQQYYSYPLTFGGGTKLEIKR
notes: also called h9E4; human 9E4
Take B2: in the experiment with Human alpha-synuclein, the binding result was “binds”.

B3: GM37 (antibody, human IgG1, kappa, V domains shown)
VH: EVQLLESGGGLVQTGGSLRLSCAASGFTFSSYAMTWVRQAPGKGLEWVSAIRSNGDRTDYADSVKGRFTISRDNSQNTLYLQMNSLRAEDTAVYYCAKNWAPFDSWGQGTLVTVSS
VL: not shown
notes: also called GM37 wild type (wt); GM37wt
For B3, the binding result in the experiment with Mouse alpha-synuclein was “binds”.
